The results in this text go back to patent US6420338B1, “Inhibition of the Src kinase family pathway as a method of treating HBV infection and hepatocellular carcinoma” (New York University Medical Center, priority 1997, dated 2002).

Series [1] relates to AP-1. Description: AP-1 dependent luciferase reporter in Chang cells expressing HBx. The settings on record: AP-1 luciferase reporter. It is filed as cell-based. The procedure: (§1) FIGS. 3A and 3B. Transcriptional activation of AP-1 by HBx involves activation of Src kinases. Chang cells transfected with 8 μg plasmids pCMV-X or pCMV-Xo, with or without cotransfection of pCsk for 18 h, then serum starved for 18 h. (FIG. 3A) Cell extracts were prepared for AP-1 EMSA as described (Benn et al., 1996, supra) using a ^32P-labeled dsDNA oligonucleotide probe containing one AP-1 binding site. Reactions were carried out using 3 μg of nuclear extract, labeled oligonuleotide and 1 μg of poly(dI-dC) for 30 min at 23° C. Protein-DNA complexes were resolved by electrophoresis on 4% polyacrylamide gels and visualized by PhosphorImage analysis. As a positive control for AP-1 stimulation, cells were treated with 20 μM TPA for 30 min. (FIG. 3B) Cells were transfected as above but contained in addition 3 μg of plasmid pAP-1LUC, which encodes the luciferase reporter under the control of four AP-1 binding sites and a minimal TATA box promoter. Serum starved cells were harvested 18 h after transfection and the level of expression of the luciferase reporter assayed. Results are the average of three independent experiments.
Here it is shown that HBx activation of AP-1 DNA binding activity and AP-1 directed transcription, both involve an essential requirement for HBx activation of Src tyrosine kinases. […]
(In general: A reporter such as luciferase makes a cellular process visible.)

Another series has as its system CMV promoter. Description: CMV-βgal reporter control (β-galactosidase activity). Type of series: cell-based. The settings on record: co-expression with CMV-βgal. The source says: To assess whether HBx activation of a Src signaling cascade plays an essential role in transcriptional upregulation of the viral mRNAs, Chang cells were co-transfected with wtWHV and either RasDN or Csk plasmids, and the RNA visualized by Northern analysis (FIG. 7, lanes 2 and 3). […] To ensure that the decrease in synthesis of WHV RNA by Csk was not the unforseen consequence of Csk inhibition of the CMV promoter (which drives synthesis of the WHV pregenomic RNA), control experiments assessing the effect of Csk on a CMV-βgal reporter were carried out. […] However, the WHx-induced increase in mRNA abundance (˜3-5 fold) is much less then the HBx-induced increase in viral DNA synthesis (˜20-30 fold). […] The stimulation of Src signaling cascades by HBx must therefore promote WHV replication independent of the effect of WHx on viral transcription.

For the next series, the system named is MAP kinase (ERK2). Description: MAP kinase (ERK2) immunoprecipitation MBP kinase assay in Chang cells expressing HBx. It is filed as cell-based.
The subject of another series is WHV. Description: Northern blot of WHV viral mRNAs in Chang cells. It is filed as cell-based, Woodchuck Hepatitis B Virus. The settings on record: Chang cells co-transfected with wtWHV. As to the method:
Chang cells were washed twice with PBS and total RNA prepared according to the manufacturer's instructions (RNeasy mini kit; Qiagen). 15 μg total RNA per sample were resolved through a 1.2% formaldehyde-agarose gel (Sambrook et al., 1989, supra), transferred to Duralon UV membrane, and pre-hybridized in Quick-Hyb solution (Stratagene) at 65° C. Hybridization to 32P-labeled full length WHV probe was carried out in the same solution at 65° C., washed as described above, and autoradiographed for 1 day.
It was next addressed whether the stimulation of viral replication by WHx was a result of transcriptional transactivation of WHV genes by WHx. Chang cells were transfected with wtWHV or pCWHV plasmids. Total cellular RNA was isolated 4 days post-transfection, equal amounts of RNA were resolved by electrophoresis through a 1.2% formaldehyde-agarose gel, and the viral mRNAs were visualized by Northern blot analysis using a ^32P-labeled probe corresponding to the entire WHV genome (FIG. 8, lanes 1 and 4). Steady-state levels of the genomic viral mRNAs was enhanced ˜3-5 fold in Chang cells expressing wtWHV as compared to PCWHV. […]

The subject of series [2] is AP-1. The experiment in a line: AP-1 electrophoretic mobility shift assay (EMSA) on nuclear extracts of Chang cells expressing HBx. It is filed as cell-based. The settings on record: cotransfection of increasing amounts of plasmid. The procedure: as §1
Nuclear extracts were prepared according to a modified Dignam protocol (Su and Schneider, 1996). […]
On the technique in general: Mobility shift assays separate free from complexed probe on a gel.

B1: Csk: Csk (carboxyl-terminal Src kinase), a specific physiologic inhibitor of Src kinase, expressed from a CMV promoter plasmid (protein, UniProt P41240 2-450, looked up)
Tyrosine-protein kinase CSK: SAIQAAWPSGTECIAKYNFHGTAEQDLPFCKGDVLTIVAVTKDPNWYKAKNKVGREGIIPANYVQKREGVKAGTKLSLMPWFHGKITREQAERLLYPPETGLFLVRESTNYPGDYTLCVSCDGKVEHYRIMYHASKLSIDEEVYFENLMQLVEHYTSDADGLCTRLIKPKVMEGTVAAQDEFYRSGWALNMKELKLLQTIGKGEFGDVMLGDYRGNKVAVKCIKNDATAQAFLAEASVMTQLRHSNLVQLLGVIVEEKGGLYIVTEYMAKGSLVDYLRSRGRSVLGGDCLLKFSLDVCEAMEYLEGNNFVHRDLAARNVLVSEDNVAKVSDFGLTKEASSTQDTGKLPVKWTAPEALREKKFSTKSDVWSFGILLWEIYSFGRVPYPRIPLKDVVPRVEKGYKMDAPDGCPPAVYEVMKNCWHLDAAMRPSFLQLREQLEHIKTHELHL
B1: the “effect on HBx induced activation of AP-1 dependent transcription” value with AP-1 [1] was “fully blocked”. The “effect on expression of βgal protein from CMV-βgal (β-galactosidase activity)” value with CMV promoter was “did not significantly alter”. In addition, in the series on MAP kinase (ERK2) (Chang cells co-expressing HBx, serum-starved in 0.5% CS for 24 hours), the “effect on HBx activation of ERK2” value is on record as “impaired”. Also, the “effect on HBx-induced activation of MAP kinase (MBP phosphorylation)” value in the series with MAP kinase (ERK2) (Chang cells co-transfected with HBx, serum-starved 20 hours, 2% serum restored for 2 hours) is reported as “abolished”. Also, the “effect on activation of MAP kinase by insulin” value with MAP kinase (ERK2) (Chang cells, overexpression, insulin stimulation) was “only slightly impaired”. For the same molecule, the “reduction of WHV RNA level” value with WHV is recorded as 3-5 fold. In addition, the “effect on HBx induction of AP-1 DNA binding complexes” value with AP-1 [2] was “suppressed”.
